Experimental data reported in US20240383996A1 (SHANGHAI HENLIUS BIOTECH, published 2024).
Blank lines part the entries; values can stand above or below the binder they belong to.

Experiments:
[1] = molecular target: T1, Human OX40 expressed on transfected Jurkat or CHO cells (human, UniProt P43489 29-277); assay: flow cytometry on human OX40-transfected Jurkat cells, Alexa Fluor488 anti-human IgG Fc, Geo MFI
T1 construct: also called human OX40/Jurkat; human OX40/CHO
T1 sequence: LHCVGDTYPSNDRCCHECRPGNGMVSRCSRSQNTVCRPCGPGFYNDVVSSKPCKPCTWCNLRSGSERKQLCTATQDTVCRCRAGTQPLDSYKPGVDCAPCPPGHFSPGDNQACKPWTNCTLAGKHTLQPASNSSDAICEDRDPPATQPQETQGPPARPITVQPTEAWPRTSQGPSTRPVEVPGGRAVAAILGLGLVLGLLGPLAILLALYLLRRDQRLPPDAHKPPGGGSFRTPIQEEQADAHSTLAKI
Procedure: FIGS. 2A-2C depict whole cell binding of humanized anti-OX40 antibodies to human or cynomolgus OX40 assessed by flow cytometry. Human OX40-expressing Jurkat cells (FIG. 2A), human OX40-expressing CHO cells (FIG. 2B) and cynomolgus OX40-expressing CHO cells (FIG. 2C) were incubated with indicated anti-OX40 bivalent antibodies, and then stained with Alexa Fluor488 conjugated anti-human IgG Fc antibody. The fluorescence intensity was measured by flow cytometry.
(§1) Bivalent antibodies of these 15 clones were made by fusing VHH to human IgG1 Fc, expressed in ExpiCHO cells, and purified by Protein A affinity column. Binding affinity of the VHH-Fc bivalent antibodies to human or cynomolgus OX40 was evaluated by flow cytometry using Jurkat cells transfected with human OX40 (human OX40/Jurkat) (FIG. 2A), CHO cells transfected with human OX40 (human OX40/CHO) (FIG. 2B), and CHO cells transfected with cynomolgus OX40 (cyno OX40/CHO) (FIG. 2C). These antibodies with indicated concentrations were incubated with the cells in FACS buffer (3% FBS in PBS) on ice for 30 min, and the free antibodies were washed out with FACS buffer. Alexa fluor488 conjugated anti-human IgG Fc antibody (1:500) (Alexa Fluor488 AffiniPure goat anti-human IgG, Fcg fragment specific, Jackson labs) was further incubated with the cells on ice for 30 min. Cells were washed to remove free antibodies prior to FACS analysis using CytoFlex (Beckman Coulter). Binding affinity was calculated using GraphPad Prism three parameter logistic equation.

[2] = molecular target: T2, Recombinant human OX40 extracellular domain fused to human IgG1 Fc (human, UniProt P43489 29-214); assay: Octet, human OX40 ECD-Fc immobilized on a biosensor chip
T2 construct: Produced in-house; also called OX40 ECD-Fc; human OX40 ECD-Fc; not shown: human IgG1 Fc
T2 sequence: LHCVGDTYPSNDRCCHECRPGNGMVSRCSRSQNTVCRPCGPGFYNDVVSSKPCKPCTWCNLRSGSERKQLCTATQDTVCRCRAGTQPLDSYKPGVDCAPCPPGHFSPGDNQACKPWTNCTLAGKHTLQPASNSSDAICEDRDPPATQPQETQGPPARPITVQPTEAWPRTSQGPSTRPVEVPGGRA
Source text: The tetravalent antibodies were produced from transiently transfected ExpiCHO cells, and purified by Protein A affinity column.

[3] = molecular target: T1, Human OX40 expressed on transfected …; assay: flow cytometry on human OX40-expressing CHO cells, Geo MFI
Procedure: (§2) FIGS. 4A-4D depict whole cell binding of anti-OX40 antibodies to human and cynomolgus OX40 assessed by flow cytometry.
as §1
(§3) The binding affinity of the anti-OX40 antibodies was further evaluated by flow cytometry using human OX40/Jurkat cells and human OX40/CHO cells using protocols described above. […] The cross-reactivity of the antibodies to cynomolgus OX40 was assessed by FACS analysis using cyno OX40/CHO cells.

[4] = molecular target: T1, Human OX40 expressed on transfected …; assay: flow cytometry on human OX40-expressing Jurkat cells, Geo MFI
Procedure: as §2, §1, §3

[5] = molecular target: T3, Cynomolgus OX40 expressed on transfected CHO cells (cynomolgus); assay: flow cytometry on cynomolgus OX40-expressing CHO cells, Geo MFI
T3 chain: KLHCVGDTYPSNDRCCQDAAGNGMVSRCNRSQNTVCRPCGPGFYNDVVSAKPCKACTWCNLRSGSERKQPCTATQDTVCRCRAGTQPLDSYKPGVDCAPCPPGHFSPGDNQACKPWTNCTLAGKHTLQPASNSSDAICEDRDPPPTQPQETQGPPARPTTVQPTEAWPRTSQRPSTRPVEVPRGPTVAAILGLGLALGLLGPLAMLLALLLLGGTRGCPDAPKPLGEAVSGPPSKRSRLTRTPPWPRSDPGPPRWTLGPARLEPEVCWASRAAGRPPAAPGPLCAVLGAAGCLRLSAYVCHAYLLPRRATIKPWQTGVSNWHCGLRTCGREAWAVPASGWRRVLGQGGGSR
Procedure: as §2
as §1, with “Cells were washed to remove free antibodies prior to FACS analysis using CytoFlex (Beckman Coulter).” left out
as §3

[6] = molecular target: T1, Human OX40 expressed on transfected …; assay: flow cytometry, whole cell binding to human OX40-expressing Jurkat cells, Geo MFI
[7] = molecular target: T1, Human OX40 expressed on transfected …; assay: as above; remark: listed apart in the source

- binding result [1]: binds
B1: 4H2 VHH-Fc bivalent antibody (antibody, human IgG1, V domains shown)
VH: EVQLVESGGGLVQPGGSLRLSCAASGPLGYPSIAWFRQAPGKGLEFVSGIAWSTGDTYYADSVKGRFTISRDNSKNTLYLQMNSLRAEDTAVYYCAADTVVHYMGRHDIRDAEEYDYWGQGTLVTVSS
notes: Humanized VHH fused to human IgG1 Fc

- Kd [2]: 3.83 nM
- koff [2]: 0.000391 s⁻¹
- EC50 [3]: 2.69 nM
- EC50 [4]: 4.25 nM
B2: 1B3 VHH-Fc bivalent antibody (antibody, human IgG1, V domains shown)
VH: EVQLVESGGGLVQPGGSLRLSCAASGPLGMPSIAWFRQAPGKGLEFVSGIAWSTGDTYYADSVKGRFTISRDNSKNTLYLQMNSLRAEDTAVYYCAADTQVHYMGRHDIRDREEYDYWGQGTLVTVSS
notes: also called 1B3-bivalent

- Kd [2]: 6.57 nM
- koff [2]: 0.000646 s⁻¹
- EC50 [3]: 2.01 nM
- EC50 [4]: 0.16 nM
- EC50 [5]: 1.93 nM
- EC50 [6]: 0.15 nM
B3: 1B3 tetravalent anti-OX40 antibody (1B3 VHH with GS linker on CH1 and on CL of human IgG1) (antibody, V domains shown)
V domain 1: EVQLVESGGGLVQPGGSLRLSCAASGPLGMPSIAWFRQAPGKGLEFVSGIAWSTGDTYYADSVKGRFTISRDNSKNTLYLQMNSLRAEDTAVYYCAADTQVHYMGRHDIRDREEYDYWGQGTLVTVSS
V domain 2: EVQLVESGGGLVQPGGSLRLSCAASGPLGMPSIAWFRQAPGKGLEFVSGIAWSTGDTYYADSVKGRFTISRDNSKNTLYLQMNSLRAEDTAVYYCAADTQVHYMGRHDIRDREEYDYWGQGTLVTVSS
notes: Four-chain format; The heavy and light variable regions of human IgG1 are replaced by the VHH

- binding result [1]: binds
B4: 1C8 VHH-Fc bivalent antibody (antibody, human IgG1, V domains shown)
VH: EVQLVESGGGLVQPGGSLRLSCAASGPLGLPSIAWFRQAPGKGLEFVSGIAWEGGDTYYADSVKGRFTISRDNSKNTLYLQMNSLRAEDTAVYYCAADTVVHYMGRHDIRDYEEYDYWGQGTLVTVSS
notes: as for B1

- Kd [2]: 6.94 nM
- koff [2]: 0.000763 s⁻¹
- EC50 [3]: 1.96 nM
- EC50 [4]: 0.2 nM
- EC50 [5]: 1.98 nM
- EC50 [6]: 0.14 nM
- EC50 [7]: 0.39 nM
B5: 2B7 tetravalent anti-OX40 antibody (2B7 VHH with GS linker on CH1 and on CL of human IgG1) (antibody, V domains shown)
V domain 1: EVQLVESGGGLVQPGGSLRLSCAASGPLGAPSIAWFRQAPGKGLEFVSGIAWSTGDTYYADSVKGRFTISRDNSKNTLYLQMNSLRAEDTAVYYCAADTSVHYMGRHDIRDYEEYDYWGQGTLVTVSS
V domain 2: EVQLVESGGGLVQPGGSLRLSCAASGPLGAPSIAWFRQAPGKGLEFVSGIAWSTGDTYYADSVKGRFTISRDNSKNTLYLQMNSLRAEDTAVYYCAADTSVHYMGRHDIRDYEEYDYWGQGTLVTVSS

- binding result [1]: binds
B6: 4D10 VHH-Fc bivalent antibody (antibody, human IgG1, V domains shown)
VH: EVQLVESGGGLVQPGGSLRLSCAASGPLGYPFIAWFRQAPGKGLEFVSGIAWSTGDTYYADSVKGRFTISRDNSKNTLYLQMNSLRAEDTAVYYCAADTVVHYMGRHDIRDREEYDYWGQGTLVTVSS
notes: as for B1

- binding result [1]: binds
B7: 1E6 VHH-Fc bivalent antibody (antibody, human IgG1, V domains shown)
VH: EVQLVESGGGLVQPGGSLRLSCAASGPLGLPSIAWFRQAPGKGLEFVSGIAWSTGDTYYADSVKGRFTISRDNSKNTLYLQMNSLRAEDTAVYYCAADTVVHYMGQHDIRDRVEYDYWGQGTLVTVSS
notes: as for B1

- binding result [1]: binds
B8: 4A6B VHH-Fc bivalent antibody (antibody, human IgG1, V domains shown)
VH: EVQLVESGGGLVQPGGSLRLSCAASGPLGYPLIAWFRQAPGKGLEFVSGIAWSDGDTYYADSVKGRFTISRDNSKNTLYLQMNSLRAEDTAVYYCAADTVVHYMGRHDIRDRSEYDYWGQGTLVTVSS
notes: as for B1

- binding result [1]: binds
B9: 2D3B VHH-Fc bivalent antibody (antibody, human IgG1, V domains shown)
VH: EVQLVESGGGLVQPGGSLRLSCAASGPLGSPSIAWFRQAPGKGLEFVSGIAWSTGDTYYADSVKGRFTISRDNSKNTLYLQMNSLRAEDTAVYYCAADTVVHYMVRHDIRDRESYDYWGQGTLVTVSS
notes: as for B1

- binding result [1]: binds
B10: 2D9 VHH-Fc bivalent antibody (antibody, human IgG1, V domains shown)
VH: EVQLVESGGGLVQPGGSLRLSCAASGPLGYPNIAWFRQAPGKGLEFVSGIAWSTGDTYYADSVKGRFTISRDNSKNTLYLQMNSLRAEDTAVYYCAADTVVHYMGRHDIRDREVYDYWGQGTLVTVSS
notes: as for B1

- binding result [1]: binds
B11: 1B7 VHH-Fc bivalent antibody (antibody, human IgG1, V domains shown)
VH: EVQLVESGGGLVQPGGSLRLSCAASGPLGEPSIAWFRQAPGKGLEFVSGIAWSSGDTYYADSVKGRFTISRDNSKNTLYLQMNSLRAEDTAVYYCAADTVVHYMGRHDIRDREEYDYWGQGTLVTVSS
notes: as for B1

- Kd [2]: 3.68 nM
- koff [2]: 0.000398 s⁻¹
- EC50 [3]: 3.11 nM
- EC50 [4]: 9.79 nM
B12: 2B7 VHH-Fc bivalent antibody (antibody, human IgG1, V domains shown)
VH: EVQLVESGGGLVQPGGSLRLSCAASGPLGAPSIAWFRQAPGKGLEFVSGIAWSTGDTYYADSVKGRFTISRDNSKNTLYLQMNSLRAEDTAVYYCAADTSVHYMGRHDIRDYEEYDYWGQGTLVTVSS
notes: also called 2B7-bivalent

- binding result [1]: binds
B13: 4F5 VHH-Fc bivalent antibody (antibody, human IgG1, V domains shown)
VH: EVQLVESGGGLVQPGGSLRLSCAASGPLGLPSIAWFRQAPGKGLEFVSGIVWSGGDTYYADSVKGRFTISRDNSKNTLYLQMNSLRAEDTAVYYCAADTKVHYMGRFDIRDLEEYDYWGQGTLVTVSS
notes: as for B1

- binding result [1]: binds
B14: 3B8 VHH-Fc bivalent antibody (antibody, human IgG1, V domains shown)
VH: EVQLVESGGGLVQPGGSLRLSCAASGPLGQPSIAWFRQAPGKGLEFVSGIAWSSGDTYYADSVKGRFTISRDNSKNTLYLQMNSLRAEDTAVYYCAADTRVHYMGRHDIRDREEYDYWGQGTLVTVSS
notes: as for B1

- binding result [1]: binds
B15: 1G9B VHH-Fc bivalent antibody (antibody, human IgG1, V domains shown)
VH: EVQLVESGGGLVQPGGSLRLSCAASGPLGYPHIAWFRQAPGKGLEFVSGIAWSGGDSYYADSVKGRFTISRDNSKNTLYLQMNSLRAEDTAVYYCAADTLVHYMGRHDISDREEYDYWGQGTLVTVSS
notes: as for B1

- binding result [1]: binds
B16: 4E8 VHH-Fc bivalent antibody (antibody, human IgG1, V domains shown)
VH: EVQLVESGGGLVQPGGSLRLSCAASGPLGYPSFAWFRQAPGKGLEFVSGIAWSSGDTYYADSVKGRFTISRDNSKNTLYLQMNSLRAEDTAVYYCAADTVVGYMGRHDIRDLEEYDYWGQGTLVTVSS
notes: as for B1

- binding result [1]: binds
B17: 1F4B VHH-Fc bivalent antibody (antibody, human IgG1, V domains shown)
VH: EVQLVESGGGLVQPGGSLRLSCAASGPLGTPSIAWFRQAPGKGLEFVSAIAWSQGDTYYADSVKGRFTISRDNSKNTLYLQMNSLRAEDTAVYYCAADTVVHYMGRHDIRDEEEYDYWGQGTLVTVSS
notes: as for B1
